Measured values from publication PMC8466245.

Assays:
[1] = biological target: Glycymeris yessoensis lectin (GYL) (Glycymeris yessoensis); experiment: SDS-PAGE without and with DTT; 15% separation gel, in the absence and presence of 10 mM DTT; disulfide-linked (covalent) dimer to subunits
[2] = biological target: Glycymeris yessoensis lectin (GYL) (Glycymeris yessoensis); experiment: MALDI-TOF mass spectrometry; Ultraflex III MALDI-TOF/TOF; singly charged ions of the subunit and of the subunit dimer

Glycymeris yessoensis lectin (GYL) (natural protein)
stoichiometry N [1]: 2 | stoichiometry N [2]: 2
